From patent US20250346646A1, “COMPOUNDS USEFUL TO TREAT METABOLIC DISORDERS” (President and Fellows of Harvard College, priority 2016, published 2025)

Tests used:
Mouse aP2 [1] = molecular target: T1, Mouse aP2 (Mus musculus, UniProt P04117); experiment: Biacore binding of CA33 to lipid-bound and lipid-free aP2
T1 construct: 10 His-tag (N, cleaved yes); TEV protease site (N, cleaved yes); made in house; host or cells: E. coli BL21DE3
T1 sequence (P04117 1-132): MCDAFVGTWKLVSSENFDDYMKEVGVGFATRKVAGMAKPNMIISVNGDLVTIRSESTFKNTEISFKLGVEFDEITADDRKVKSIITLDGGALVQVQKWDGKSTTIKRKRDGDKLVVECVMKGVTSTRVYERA
Protocol: The affinity of anti-aP2 binding to aP2 (recombinantly generated in E. coli as described below) was determined by biomolecular interaction analysis, using a Biacore T200 system (GE Healthcare). Affinipure F(ab′)2 fragment goat anti-mouse IgG, Fc fragment specific (Jackson ImmunoResearch Lab, Inc.) in 10 mM NaAc, pH 5 buffer was immobilized on a CM5 Sensor Chip via amine coupling chemistry to a capture level between 4500-6000 response units (RU) using HBS-EP+(GE Healthcare) as the running buffer. Anti-aP2 IgG was diluted to between 1-10 μg/ml in running buffer. A 60 s injection of anti-aP2 IgG at 10 μl/min was used for capture by the immobilized anti-mouse IgG, Fc then aP2 was titrated from 25 nM to 3.13 nM over the captured anti-aP2 for 180 s at 30 μl/min followed by 300 s dissociation. The surface was regenerated by 2×60 s 40 mM HCl and 1×30 s 5 mM NaOH at 10 μl/min. The data were analyzed using Biacore T200 evaluation software (version 1.0) using the 1:1 binding model with local Rmax. For CA33, 60 s injection of the antibody at 10 μl/min was used for capture by the immobilized anti-mouse IgG, Fc then aP2 was titrated from 40 μM to 0.625 μM over the captured anti-aP2 for 180 s at 30 μl/min followed by 300 s dissociation. The surface was regenerated by 1×60 s 40 mM HCl, 1×30 s 5 mM NaOH and 1×60 s 40 mM HCl at 10 μl/min. Steady state fitting was used to determine affinity values. […]

Mouse aP2 [2] = molecular target: T1, Mouse aP2; experiment: Biacore antibody cross-blocking vs H3; format: binding
Protocol: FIG. 10B is a table of antibody crossblocking of H3 vs. CA33, CA13, CA15, and CA23 as determined by Biacore analysis. ++=complete blocking; +=partial blocking; −=no crossblocking.
The assay was performed by injecting mouse aP2 in the presence or absence of mouse anti-aP2 IgG over captured rabbit anti-aP2 IgG. Biomolecular interaction analysis was performed using a Biacore T200 (GE Healthcare Bio-Sciences AB). Anti-aP2 rabbit IgG transient supernatants were captured on the immobilized anti-rabbit Fc surfaces (one supernatant per flowcell) using a flow rate of 10 μl/min and a 60 s injection to give response levels above 200RU. Then mouse aP2 at 100 nM, 0 nM or mouse aP2 at 100 nM plus mouse anti-aP2 IgG at 500 nM were passed over for 120 s followed by 120 s dissociation. The surfaces were regenerated with 2×60 s 40 mM HCl and 1×30 s 5 mM NaOH.
In further analysis, epitope identification based on hydrogen-deuterium exchange mass spectrometry experiments, for example, as described by Pandit et al. (2012) J. Mol. Recognit. […] Co-crystallization of the Fab fragments of CA33 and H3 with aP2 (FIG. 10D) was then conducted. […] Despite the partial blocking of H3 by CA33, we observed that there is in fact no direct overlap of their epitopes. Instead, the significant movement of the region around aP2 Phe58 may partially block binding of one antibody by the other in the competition experiments. […]

[3] = system: HFD-induced obese aP2−/− mice; experiment: CA33 treatment of HFD-induced obese aP2−/− mice; format: in vivo, mouse
Protocol: FIG. 11A is a bar graph showing fasting blood glucose (mg/dL) in HFD-induced obese aP2−/− mice before (open bars) and after CA33 antibody or vehicle treatment for three weeks (solid bars).
The test was performed after 2 weeks of vehicle (triangles) or CA33 antibody treatment (squares) in aP2−/− mice.
Animal care and experimental procedures were performed with approval from animal care committees of Harvard University. Male mice (leptin-deficient (ob/ob) and diet induced obese (DIO) mice with C57BL/6J background) were purchased from The Jackson Laboratory (Bar Harbor, ME) and kept on a 12-hour light/dark cycle. DIO mice with C57BL/6J background were maintained on high-fat diet (60% kcal fat, Research Diets, Inc., D12492i) for 12 to 15 weeks before starting treatment except in clamp studies, for which they were on HFD for 20 weeks. Leptin-deficient (ob/ob) mice were maintained on regular chow diet (RD, PicoLab 5058 Lab Diet). Animals used were 18 to 31 weeks of age for dietary models and 9 to 12 weeks of age for the ob/ob model. In all experiments, at least 7 mice in each group were used, unless otherwise stated in the text. The mice were treated with 150 μl PBS (vehicle) or 1.5 mg/mouse (˜33 mg/kg) anti-aP2 monoclonal antibody in 150 μl PBS by twice weekly subcutaneous injections for 3 to 5 weeks. Before and after the treatment, blood samples were collected from the tail after 6 hours of daytime food withdrawal. Body weights were measured weekly in the fed state. Blood glucose levels were measured weekly after 6 hours of food withdrawal or after 16 hours overnight fast. After 2 weeks of treatment, glucose tolerance tests were performed by intraperitoneal glucose injections (0.75 g/kg for DIO, 0.5 g/kg for ob/ob mice). After 3 weeks of treatment, insulin tolerance tests were performed in DIO mice by intraperitoneal insulin injections (0.75 IU/kg). After 5 weeks of treatment, hyperinsulinemic-euglycemic clamp experiments were performed in DIO mice as previously described (Furuhashi et al., (2007) Nature 447, 959-965; Maeda et al., (2005) Cell metabolism 1, 107-119). […]

aP2 = aP2 (Homo sapiens, UniProt P15090); experiment: Paranaric acid (lipid) binding to aP2; conditions: vs IgG control antibody, over pH
Protocol: FIG. 10F is a line graph showing paranaric acid binding to aP2 (relative fluorescence) vs. pH in the presence of IgG control antibody (circles) or CA33 antibody (squares).
In further analysis, epitope identification based on hydrogen-deuterium exchange mass spectrometry experiments, for example, as described by Pandit et al. (2012) J. Mol. Recognit. […] Co-crystallization of the Fab fragments of CA33 and H3 with aP2 (FIG. 10D) was then conducted. […] Despite the partial blocking of H3 by CA33, we observed that there is in fact no direct overlap of their epitopes. Instead, the significant movement of the region around aP2 Phe58 may partially block binding of one antibody by the other in the competition experiments. In addition, the low affinity of the CA33 Fab can be explained by the crystal structure. Unusually, only one amino acid in the heavy chain of CA33 makes a contact with aP2, and the majority of the contacts are through the light chain (FIGS. 10D and 10E). In contrast, H3-aP2 contact is more conventional, with both Fab chains interacting with aP2. […] H3 does bind directly to the ‘lid’ but has limited activity. Binding of CA33 to lipid-bound aP2 or lipid-free aP2 was also examined using biochemical analysis (Biacore). CA33 binds to both lipid-bound aP2 and lipid-free aP2 with the following affinities: […]

Sequence of aP2 (P15090 whole entry): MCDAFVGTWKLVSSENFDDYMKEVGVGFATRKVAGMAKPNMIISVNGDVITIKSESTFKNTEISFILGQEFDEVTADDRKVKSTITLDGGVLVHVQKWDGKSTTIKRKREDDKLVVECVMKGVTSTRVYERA

B1: CA33: low-affinity anti-aP2 monoclonal antibody, rabbit-mouse hybrid, produced and purified by UCB; VL Seq. ID 28, VH Seq. ID 41 (antibody, V domains shown)
VH: QSVEESGGRLVTPGTPLTLTCTVSGFSLSTYYMSWVRQAPGKGLEWIGIIYPSGSTYCASWAKGRFTISKASTTVDLKITSPTTEDTATYFCARPDNDGTSGYLSGFGLWGQGTLVTVSS
VL: DVVMTQTPASVSEPVGGTVTIKCQASEDISRYLVWYQQKPGQPPKRLIYKASTLASGVPSRFKGSGSGTDFTLTISDLECDDAATYYCQCTYGTYAGSFFYSFGGGTEVVVE
modifications: Rabbit Ab 909 VH region; Rabbit Ab 909 VL-region
Kd (Mouse aP2 [1]; De-lipidated mouse aP2, Biacore): 4.7 µM
Kd (Mouse aP2 [1]; Lipid-loaded mouse aP2, Biacore): 9.3 µM
Blocking of H3 binding to aP2 (Mouse aP2 [2]): partially blocked
Weight ([3]; aP2−/− mice fed a HFD): failed to induce any change
Fasting glucose ([3]; aP2−/− mice fed a HFD, three weeks treatment): failed to induce any change
Glucose tolerance (GTT) ([3]; obese aP2−/− mice, after 2 weeks of treatment): did not affect glucose tolerance
Effect on lipid (paranaric acid) binding to aP2 (aP2): not substantially altered
